In article PMC9467613 (mAbs, 2022):

B1: B7-H4 purified monomeric recombinant human protein (natural protein)
chain: LIIGFGISGRHSITVTTVASAGNIGEDGILSCTFEPDIKLSDIVIQWLKEGVLGLVHEFKEGKDELSEQDEMFRGRTAVFADQVIVGNASLRLKNVQLTDAGTYKCYIITSKGKGNANLEYKTGAFSMPEVNVDYNASSETLRCEAPRWFPQPTVVWASQVDQGANFSEVSNTSFELNSENVTMKVVSVLYNVTINNTYSCMIENDIAKATGDIKVTESEIKRRSHLQLLNSKAS
B2: parental antibody against B7-H4, scFv-Fc (scFv, V domains shown)
VH: EVQLVESGGGVVQPGRSLRLSCAASGFTFSSYSMNWVRQAPGKGLEWVSAISGSGGSTYYADSVKGRFTISRDNSKNTLYLQMNSLRAEDTAVYYCARKRWYGMDVWGQGTTVTVSS
VL: SYELTQPPSVSVAPGKTARITCGGNNIGSKSVHWYQQKPGQAPVLVVYDDSDRPSGIPERFSGSNSGNTATLTISRVEAGDEADYYCQVWDSRTYVFGTGTKLTVL

Key:
Experiment in all cases: SPR
A06 = target: A06
B01 = target: B01
B05 = target: B05
G05 = target: G05
[1] = target: B7-H4 purified monomeric recombinant human protein (Homo sapiens, UniProt Q7Z7D3)

Row | Binder | Kd (A06) [nM] | koff (A06) [s⁻¹] | Kd (B01) [nM] | koff (B01) [s⁻¹] | Kd (B05) [nM] | koff (B05) [s⁻¹] | Kd (G05) [nM] | koff (G05) [s⁻¹] | Kd [1] [nM] | koff [1] [s⁻¹] | kon [1] [M⁻¹ s⁻¹]
1 | B1 | < 0.034 | < 1e-05 | < 0.032 | < 1e-05 | < 0.068 | < 1e-05 | < 0.063 | < 1e-05 |  |  | 
2 | B2 |  |  |  |  |  |  |  |  | 7.43 | 0.0033 | 450000
